Assay results taken from patent publication US20220024975A1 (ARROWHEAD PHARMACEUTICALS, published 2022).
Values joined by “and” are separate entries in the source; they are usually repeats but may differ in a detail not shown here. Identical values can stand only once. Non-standard residues stand in square brackets, D forms with d. No end group written: not given here. *: point of attachment. MeO‑PEG8 = N-terminal cap, methoxy-PEG with 8 ethylene glycol units; guanidinyl = N-terminal guanidinyl cap, N=C(N)*; Pentanoyl(5-guanidino) = NC(N)=NCCCCC(=O)*; Cha = N[C@@H](CC1CCCCC1)C(=O)O; Cit = NC(=O)NCCC[C@H](N)C(=O)O; Agp = N=C(N)NC[C@H](N)C(=O)O; Abu = CC[C@H](N)C(=O)O; Aib = CC(C)(N)C(=O)O; Sar = CNCC(=O)O

What follows are molecules tested against T1, αvβ6 integrin (human, UniProt P06756 31-1048; P18564 22-788) (assay: flow cytometry, Cy5-polymer conjugate on H2009 / CAPAN-2 cells).
T1 construct: whole, on cells; target is the endogenous integrin on αvβ6 positive-control cell lines; also called Integrin alpha-v beta-6
T1 sequence (P06756 31-1048, chain 1 of 2): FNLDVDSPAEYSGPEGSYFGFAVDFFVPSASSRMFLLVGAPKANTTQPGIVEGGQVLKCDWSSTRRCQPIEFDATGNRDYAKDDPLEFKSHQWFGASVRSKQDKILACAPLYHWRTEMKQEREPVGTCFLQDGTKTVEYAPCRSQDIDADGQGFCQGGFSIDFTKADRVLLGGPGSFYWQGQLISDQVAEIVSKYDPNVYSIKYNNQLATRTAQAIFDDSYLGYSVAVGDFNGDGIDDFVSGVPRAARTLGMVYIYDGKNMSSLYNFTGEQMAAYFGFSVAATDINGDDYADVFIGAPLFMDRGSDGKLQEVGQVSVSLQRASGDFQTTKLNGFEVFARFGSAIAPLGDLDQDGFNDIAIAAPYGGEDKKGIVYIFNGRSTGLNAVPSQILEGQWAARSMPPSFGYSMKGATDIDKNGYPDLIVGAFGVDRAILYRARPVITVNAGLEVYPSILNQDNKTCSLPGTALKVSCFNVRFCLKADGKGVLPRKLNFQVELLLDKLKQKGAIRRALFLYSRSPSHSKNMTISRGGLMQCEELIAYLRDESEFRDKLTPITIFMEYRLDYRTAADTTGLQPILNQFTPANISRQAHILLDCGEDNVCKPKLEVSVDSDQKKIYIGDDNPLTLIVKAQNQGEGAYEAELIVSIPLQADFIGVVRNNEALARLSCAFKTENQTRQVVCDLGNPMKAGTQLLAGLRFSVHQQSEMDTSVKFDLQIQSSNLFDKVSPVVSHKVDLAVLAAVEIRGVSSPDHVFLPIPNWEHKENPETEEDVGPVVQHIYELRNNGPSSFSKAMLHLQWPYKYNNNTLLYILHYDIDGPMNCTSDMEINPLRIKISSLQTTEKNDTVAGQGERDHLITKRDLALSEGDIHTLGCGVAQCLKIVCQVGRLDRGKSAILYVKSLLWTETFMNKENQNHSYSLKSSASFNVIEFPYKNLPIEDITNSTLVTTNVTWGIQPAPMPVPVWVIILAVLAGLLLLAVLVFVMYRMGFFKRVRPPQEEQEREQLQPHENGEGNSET
T1 sequence (P18564 22-788, chain 2 of 2): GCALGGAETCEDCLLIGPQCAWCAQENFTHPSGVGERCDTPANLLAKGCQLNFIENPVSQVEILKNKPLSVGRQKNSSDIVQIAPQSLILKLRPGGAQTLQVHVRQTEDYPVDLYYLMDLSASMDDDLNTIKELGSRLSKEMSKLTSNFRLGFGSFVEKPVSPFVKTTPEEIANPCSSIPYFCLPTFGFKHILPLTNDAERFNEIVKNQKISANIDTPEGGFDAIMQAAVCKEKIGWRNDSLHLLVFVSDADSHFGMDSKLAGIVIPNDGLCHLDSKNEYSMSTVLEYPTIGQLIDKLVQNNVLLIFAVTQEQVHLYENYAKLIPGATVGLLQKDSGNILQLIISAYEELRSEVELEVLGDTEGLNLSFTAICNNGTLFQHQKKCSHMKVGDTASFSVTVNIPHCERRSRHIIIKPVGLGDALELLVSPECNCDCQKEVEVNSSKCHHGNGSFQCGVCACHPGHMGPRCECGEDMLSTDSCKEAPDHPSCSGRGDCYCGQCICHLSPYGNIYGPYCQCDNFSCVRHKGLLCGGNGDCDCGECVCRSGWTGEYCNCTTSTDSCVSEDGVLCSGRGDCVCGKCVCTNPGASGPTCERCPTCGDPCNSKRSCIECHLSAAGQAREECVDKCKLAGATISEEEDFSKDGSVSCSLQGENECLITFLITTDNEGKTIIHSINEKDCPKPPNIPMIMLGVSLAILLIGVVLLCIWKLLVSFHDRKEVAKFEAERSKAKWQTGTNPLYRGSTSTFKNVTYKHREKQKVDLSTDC
Source text: B. αvβ6 ligand binding (flow cytometric analyses). To assess for specificity of binding of the αvβ6 ligands to the αvβ6 integrin, each αvβ6 ligand or negative control peptide was conjugated to a Cy5-labeled polymer (as described above) and evaluated for binding to cells. […] H2009 (human lung epithelial adenocarcinoma) and CAPAN-2 (human pancreas adenocarcinoma) cells served as the αvβ6 positive-control cell lines. Cells were detached from culturing flasks with Accutase, washed in PBS, and seeded into 5 ml polystyrene round-bottom tubes at 200,000 cells in 200 μl complete media (culturing media with supplements and fetal calf serum). αvβ6 ligand-polymer conjugates or no-ligand-polymer conjugates were added at 5 μg/ml (polymer-Cy5 concentration) to cells, mixed and incubated at 37° C. for 3 h. […] Samples were analyzed on a BD Biosciences Canto II cytometer equipped with a violet (405 nm), blue (488 nm) and red (633 nm) lasers.
Viable cells were initially gated as the SYTOX blue negative population on the C detector with the violet laser. These viable cells were then assessed for conjugate binding/uptake with the red laser as the Mean Fluorescence Intensity (MFI) of the Cy5 fluorophore. […] A specific MFI Ratio (sMFIr) for each αvβ6 ligand was determined by the formula: […]

Molecule | binding result
RGELATLRQL (not fully specified; printed as RGELATLRQL (RGE control), Negative control; Tested as ligand-(PEG)8-K-HyNic conjugated to Cy5-labelled 1170-100B polymer) [RGELATLRQL (RGE control)] | no binding (tested: 5 µg/ml (polymer-Cy5 concentration))

Each molecule was assayed against T1, αvβ6 integrin (assay: flow cytometry, Cy5-polymer conjugate 5 µg/ml, CAPAN-2 cells).

Molecule | MFI (specific MFI ratio, sample/no-ligand)
Ac-RGαMeDLAAbuLCitAib (peptide) | 1
Ac-RGDαMeLAAbuLCitAib (peptide) | 0.9
Ac-RGDLA[Abu]L[Aib] | 8.9
Ac-RGDLA[Abu]L[Cit][Aib]L | 7.7
Ac-RGDLA[Abu]L | 7.9

These molecules were tested against T1, αvβ6 integrin (assay: flow cytometry, Cy5-polymer conjugate 5 µg/ml, H2009 cells).
Source text: B. αvβ6 ligand binding (flow cytometric analyses). To assess for specificity of binding of the αvβ6 ligands to the αvβ6 integrin, each αvβ6 ligand or negative control peptide was conjugated to a Cy5-labeled polymer (as described above) and evaluated for binding to cells. […] H2009 (human lung epithelial adenocarcinoma) and CAPAN-2 (human pancreas adenocarcinoma) cells served as the αvβ6 positive-control cell lines. Cells were detached from culturing flasks with Accutase, washed in PBS, and seeded into 5 ml polystyrene round-bottom tubes at 200,000 cells in 200 μl complete media (culturing media with supplements and fetal calf serum). αvβ6 ligand-polymer conjugates or no-ligand-polymer conjugates were added at 5 μg/ml (polymer-Cy5 concentration) to cells, mixed and incubated at 37° C. for 3 h. Incubation at 37° C. facilitated ligand/receptor interaction which may result in static binding to the extracellular cell surface and/or internalized ligand/receptor complexes. The mixture was re-suspended at 1 h intervals. Following a 3 h incubation, cells were washed 2× with 4 ml chilled buffer (PBS-2% FCS) and re-suspended in 200 μl buffer containing 10 μM SYTOX blue stain for live/dead cell gating. Samples were analyzed on a BD Biosciences Canto II cytometer equipped with a violet (405 nm), blue (488 nm) and red (633 nm) lasers.
Viable cells were initially gated as the SYTOX blue negative population on the C detector with the violet laser. These viable cells were then assessed for conjugate binding/uptake with the red laser as the Mean Fluorescence Intensity (MFI) of the Cy5 fluorophore. Data analyses were performed with FlowJo v10.1 software. A specific MFI Ratio (sMFIr) for each αvβ6 ligand was determined by the formula: […]

Molecule | MFI (specific MFI ratio, sample/no-ligand)
Ac-RGαMeDLAAbuLCitAib (peptide) | 0.9 and 1
Ac-RGDLβ3-hAAbuLCitAib (peptide) | 2.34
Ac-RGDLP[Abu]L[Cit][Aib] | 1
Ac-RGDLA[Abu]LRQL | 6.47
Ac-RGDLA[Abu]L[Cit]K | 5.2
Ac-RGDLF[Abu]L[Cit][Aib] | 2.7
CH3(CH2)3-RGDLAAbuLCitAib (peptide) | 4.7
Ac-RGDαMeLAAbuLCitAib (peptide) | 0.8 and 1
CH3(CH2)4CO-RGDLAAbuLCitAib (peptide) | 3.9
Ac-RGDLAPL[Cit][Aib] | 2.8
Ac-RGDLA[Abu]L[Aib] | 3.2
Ac-[Cit]GDLATL[Cit]QL | 0.99
RGDLA[Abu]L[Cit][Aib]L | 4.6
Ac-RGDLA[Abu]LP[Aib] | 1.6
Ac-RGDL[Cha]TLRQL | 5.1
CH3O(CH2CH2O)3CH2CH2CO-RGDLAAbuLCitAib (peptide) | 3.7
Ac-R[Sar]DLA[Abu]L[Cit][Aib] | 2.6
Ac-RGDLA[Abu]L[Cit][Aib] | 4.7 and 3.8
Ac-RGDLA[Abu]L[Cit]F | 3.7
CH3(CH2)2CO-RGDLAAbuLCitAib (peptide) | 4.3
CH3(CH2)4-RGDLAAbuLCitAib (peptide) | 4.1
Ac-RGDLA[Abu]L[Cit][Aib]L | 3.2 and 4.55 and 4.6
Ac-RGDLA[Abu]LE[Aib] | 1.9

Molecule | MFI (specific MFI ratio, sample/no-ligand)
CH3(CH2)2-RGDLAAbuLCitAib (peptide) | 3.9
Ac-RGDLA[Abu]LG[Aib] | 4
Ac-RGDNMeLAAbuLCitAib (peptide) | 1
Ac-RGDL[Cha][Abu]L[Cit][Aib] | 1.6
CH3O(CH2CH2O)5CH2CH2CO-RGDLAAbuLCitAib (peptide) | 1.6
Ac-RGDLE[Abu]L[Cit][Aib] | 2.6
Ac-RGDLA[Abu]LK[Aib] | 5.4
Ac-RGDLA[Abu]L[Cit]E | 4
Ac-RGDLAFL[Cit][Aib] | 2
CH3O(CH2CH2O)2CH2CH2CO-RGDLAAbuLCitAib (peptide) | 3.6
Ac-RGDLATL[Cit]QL | 3.94
Ac-RGDLG[Abu]L[Cit][Aib] | 3.7
CH3(CH2)1CO-RGDLAAbuLCitAib (peptide) | 4.2
CH3CH2-RGDLAAbuLCitAib (peptide) | 4.4
CH3(CH2)3CO-RGDLAAbuLCitAib (peptide) | 4.1
Ac-RGDLA[Abu]LQ[Aib] | 4.4
Ac-RGDLA[Abu]L[Cit] | 3.3
Ac-RGDLAGL[Cit][Aib] | 3.8
Ac-RGDLAEL[Cit][Aib] | 2.4
Ac-RGDLAKL[Cit][Aib] | 3.6
Ac-RGDLAAbuNMeLCitAib (peptide) | 1.3
Ac-RGDLAQL[Cit][Aib] | 3.6
Ac-RGDLA[Abu]LF[Aib] | 3.6

Molecule | MFI (specific MFI ratio, sample/no-ligand)
Ac-RGDLK[Abu]L[Cit][Aib] | 3.6
Ac-RGDLA[Abu]L[Cit]G | 4.8
Ac-RGDLβ3-hATLRQL (peptide) | 4.5
Ac-RGDLA[Abu]L | 2.6
Ac-RGDLA[Abu]L[Cit]Q | 4.4
CH3O(CH2CH2O)1CH2CH2CO-RGDLAAbuLCitAib (peptide) | 3.8
Ac-RGDLQ[Abu]L[Cit][Aib] | 3.7
Ac-RGDLA[Abu]L[Cit]P | 4
Ac-RGDL[Aib]TLRQL | 4
[Pentanoyl(5-guanidino)]GDLATLRQL (not fully specified (C-terminus); printed as des-amino-RGDLATLRQL; also: HyNic conjugated to Cy5-labelled 1170-100B polymer) [des-amino-…] | 1.1
Ac-RGDLAILRQL (not fully specified; printed as Ac-RGDLAILRQL, Tested as ligand-(PEG)8-K-HyNic conjugated to Cy5-labelled 1170-100B polymer) [Ac-RGDLAILRQL] | 6.22 ratio
Ac-RGDLALLRQL (not fully specified; printed as Ac-RGDLALLRQL, Tested as ligand-(PEG)8-K-HyNic conjugated to Cy5-labelled 1170-100B polymer) [Ac-RGDLALLRQL] | 6.06 ratio
Ac-RGDLAVLRQL (not fully specified; printed as Ac-RGDLAVLRQL, Tested as ligand-(PEG)8-K-HyNic conjugated to Cy5-labelled 1170-100B polymer) [Ac-RGDLAVLRQL] | 6.23 ratio
RGELATLRQL (not fully specified; printed as RGELATLRQL (RGE control), Negative control; Tested as ligand-(PEG)8-K-HyNic conjugated to Cy5-labelled 1170-100B polymer) [RGELATLRQL (RGE control)] | 0.99 ratio
RGDLATLRQLEEEK(HyNic) (also: conjugated via HyNic to Cy5-labelled 1170-100B polymer, places HyNic at (1)..(1) as C-terminal, Conjugated to Cy5-labelled 1170-100B polymer; printed with its own K-(HyNic)) [RGDLATLRQLEEEK-(HyNic)] | 6.5 ratio
Ac-RGDLATLRQL (not fully specified; printed as Ac-RGDLATLRQL, Tested as ligand-(PEG)8-K-HyNic conjugated to Cy5-labelled 1170-100B polymer) [Ac-RGDLATLRQL] | 4.7 ratio
Me-RGDLATLRQL (not fully specified; printed as Me-RGDLATLRQL, Tested as ligand-(PEG)8-K-HyNic conjugated to Cy5-labelled 1170-100B polymer) [Me-RGDLATLRQL] | 4.8 ratio
guanidinyl-RGDLATLRQL (not fully specified; printed as Guanidinyl-RGDLATLRQL, Tested as ligand-(PEG)8-K-HyNic conjugated to Cy5-labelled 1170-100B polymer) [Guanidinyl-RGDLATLRQL] | 4.3 ratio
{MeO‑PEG8}-RGDLATLRQL (not fully specified; printed as MeO-PEG8-RGDLATLRQL, Tested as ligand-(PEG)8-K-HyNic conjugated to Cy5-labelled 1170-100B polymer) [MeO-PEG8-RGDLATLRQL] | 2.5 ratio
[Agp]GDLATLRQL (not fully specified; printed as Dap(guanidino)-GDLATLRQL, Tested as ligand-(PEG)8-K-HyNic conjugated to Cy5-labelled 1170-100B polymer) [Dap(guanidino)-GDLATLRQL] | 3.4 ratio
RGDLATLRQ (not fully specified, Tested as ligand-(PEG)8-K-HyNic conjugated to Cy5-labelled 1170-100B polymer) | 4.7 ratio
RGDLATL (not fully specified, Tested as ligand-(PEG)8-K-HyNic conjugated to Cy5-labelled 1170-100B polymer; also called natural peptide) | 2.9 ratio
RGDLAT (not fully specified, Tested as ligand-(PEG)8-K-HyNic conjugated to Cy5-labelled 1170-100B polymer) | 1.3 ratio
